Seven molecules from US20240124528A1 (ACADEMIA SINICA, published 2024) can be followed below.

B3: IL-17RB-Flag (Flag-tagged IL-17RB, wild type) (receptor)
chain: REPTVQCGSETGPSPEWMLQHDLIPGDLRDLRVEPVTTSVATGDYSILMNVSWVLRADASIRLLKATKICVTGKSNFQSYSCVRCNYTEAFQTQTRPSGGKWTFSYIGFPVELNTVYFIGAHNIPNANMNEDGPSMSVNFTSPGCLDHIMKYKKKCVKAGSLWDPNITACKKNEETVEVNFTTTPLGNRYMALIQHSTIIGFSQVFEPHQKKQTRASVVIPVTGDSEGATVQLTPYFPTCGSDCIRHKGTVVLCPQTGVPFPLDNNKSKPGGWLPLLLLSLLVATWVLVAGIYLMWRHERIKKTSFSTTTLLPPIKVLVVYPSEICFHHTICYFTEFLQNHCRSEVILEKWQKKKIAEMGPVQWLATQKKAADKVVFLLSNDVNSVCDGTCGKSEGSPSENSQDLFPLAFNLFCSDLRSQIHLHKYVVVYFREIDTKDDYNALSVCPKYHLMKDATAFCAELLHVKQQVSAGKRSQACHDGCCSL
notes: The construct as expressed; also called Flag-IL-17RB; Flag-tagged WT IL-17RB; not shown: Flag tag
B4: IL-17RB-HA (C-terminally HA-tagged full-length IL-17RB, wild type) (receptor)
chain: REPTVQCGSETGPSPEWMLQHDLIPGDLRDLRVEPVTTSVATGDYSILMNVSWVLRADASIRLLKATKICVTGKSNFQSYSCVRCNYTEAFQTQTRPSGGKWTFSYIGFPVELNTVYFIGAHNIPNANMNEDGPSMSVNFTSPGCLDHIMKYKKKCVKAGSLWDPNITACKKNEETVEVNFTTTPLGNRYMALIQHSTIIGFSQVFEPHQKKQTRASVVIPVTGDSEGATVQLTPYFPTCGSDCIRHKGTVVLCPQTGVPFPLDNNKSKPGGWLPLLLLSLLVATWVLVAGIYLMWRHERIKKTSFSTTTLLPPIKVLVVYPSEICFHHTICYFTEFLQNHCRSEVILEKWQKKKIAEMGPVQWLATQKKAADKVVFLLSNDVNSVCDGTCGKSEGSPSENSQDLFPLAFNLFCSDLRSQIHLHKYVVVYFREIDTKDDYNALSVCPKYHLMKDATAFCAELLHVKQQVSAGKRSQACHDGCCSL
notes: Full-length IL-17RB subcloned into pcDNA3.1, expressed in 293T, IL-17RB-KO BxPC3 or SU.86.86 cells; also called HA-IL-17RB; HA-tagged WT IL-17RB; not shown: HA tag, C-terminal

Data set [1] concerns the target T1, HA-TRIM56 (TRIM56-HA, HA-tagged tripartite-motif 56) (UniProt Q9BRZ2 1-755).
T1 construct: also called HA-tagged TRIM56; HA-TIM56; not shown: HA tag of the C-HA vector
T1 sequence (looked up): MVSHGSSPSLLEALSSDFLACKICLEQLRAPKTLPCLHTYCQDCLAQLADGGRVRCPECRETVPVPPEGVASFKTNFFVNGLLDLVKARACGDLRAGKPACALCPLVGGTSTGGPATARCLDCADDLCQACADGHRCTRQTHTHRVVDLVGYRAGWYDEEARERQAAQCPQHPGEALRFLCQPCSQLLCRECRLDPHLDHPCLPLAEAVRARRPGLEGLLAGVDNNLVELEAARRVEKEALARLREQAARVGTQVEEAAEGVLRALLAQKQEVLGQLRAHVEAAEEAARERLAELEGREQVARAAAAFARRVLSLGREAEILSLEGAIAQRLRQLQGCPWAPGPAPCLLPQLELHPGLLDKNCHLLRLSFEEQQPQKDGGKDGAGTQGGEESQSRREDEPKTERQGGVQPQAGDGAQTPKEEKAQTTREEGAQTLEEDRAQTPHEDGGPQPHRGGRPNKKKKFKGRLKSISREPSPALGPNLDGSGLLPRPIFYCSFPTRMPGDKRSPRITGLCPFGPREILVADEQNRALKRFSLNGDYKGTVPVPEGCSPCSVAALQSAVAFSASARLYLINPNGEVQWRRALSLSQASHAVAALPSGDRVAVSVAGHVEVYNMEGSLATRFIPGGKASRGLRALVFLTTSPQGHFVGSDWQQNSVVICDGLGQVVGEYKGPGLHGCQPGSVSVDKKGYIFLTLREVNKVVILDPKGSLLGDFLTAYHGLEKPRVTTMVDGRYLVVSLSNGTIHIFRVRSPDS
Put plainly: reciprocal co-IP, 293T cells, rIL-17B (FIG. 6D).

In data set [2] the target is T2, TRIM56 (tripartite-motif 56), endogenous (human, UniProt Q9BRZ2 1-755).
T2 construct: also called ubiquitin E3 ligase TRIM56
T2 sequence (looked up): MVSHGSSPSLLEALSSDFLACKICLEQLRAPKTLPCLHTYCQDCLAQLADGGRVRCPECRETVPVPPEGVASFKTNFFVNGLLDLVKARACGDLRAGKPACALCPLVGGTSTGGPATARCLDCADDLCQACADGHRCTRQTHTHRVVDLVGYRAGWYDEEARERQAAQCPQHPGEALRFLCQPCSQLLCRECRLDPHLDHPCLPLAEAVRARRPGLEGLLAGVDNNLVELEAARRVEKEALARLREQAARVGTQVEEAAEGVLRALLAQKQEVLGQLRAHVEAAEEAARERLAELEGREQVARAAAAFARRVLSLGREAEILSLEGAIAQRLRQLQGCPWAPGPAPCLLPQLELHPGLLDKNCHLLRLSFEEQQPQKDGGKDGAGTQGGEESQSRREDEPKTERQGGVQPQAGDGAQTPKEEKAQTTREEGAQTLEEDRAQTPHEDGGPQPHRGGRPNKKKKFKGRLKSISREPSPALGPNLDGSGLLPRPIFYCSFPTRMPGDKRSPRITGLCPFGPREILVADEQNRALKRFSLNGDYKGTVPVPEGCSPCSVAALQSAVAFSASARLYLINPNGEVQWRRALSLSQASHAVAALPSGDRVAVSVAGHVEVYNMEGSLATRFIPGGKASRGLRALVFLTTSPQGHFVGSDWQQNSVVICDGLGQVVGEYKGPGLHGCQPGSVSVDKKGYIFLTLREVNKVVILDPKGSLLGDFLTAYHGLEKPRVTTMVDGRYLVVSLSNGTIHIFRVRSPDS
Put plainly: co-IP with anti-Flag beads (FIG. 17F).

Data set [3] concerns the target B4. Description: co-IP with anti-HA beads, 293T cells, rIL-17B (FIG. 4B).
Data set [4] concerns the target B3. Put plainly: Duolink in situ interaction assay with anti-HA and anti-Flag, IL-17RB-KO BxPC3 cells (FIG. 4C, FIG. 13D).
Data set [5] concerns the molecule itself. Put plainly: Duolink in situ interaction assay with anti-IL-17RB (D9), CFPAC1 cells, 50 ng/ml rIL-17B (FIG. 4D).
For data set [6], the target named is B4. Put plainly: co-IP with anti-HA beads, IL-17RB-KO BxPC3 cells, 50 ng/ml rIL-17B (FIG. 14B).
The target in data set [7] is T1, HA-TRIM56 (TRIM56-HA, HA-tagged …). Description: co-IP in 293T cells (FIG. 6B) and native-PAGE of mixed purified proteins (FIG. 17A).

B1: IL-17RB ΔN458˜V462 (Del-6), Flag-tagged (receptor)
chain: REPTVQCGSETGPSPEWMLQHDLIPGDLRDLRVEPVTTSVATGDYSILMNVSWVLRADASIRLLKATKICVTGKSNFQSYSCVRCNYTEAFQTQTRPSGGKWTFSYIGFPVELNTVYFIGAHNIPNANMNEDGPSMSVNFTSPGCLDHIMKYKKKCVKAGSLWDPNITACKKNEETVEVNFTTTPLGNRYMALIQHSTIIGFSQVFEPHQKKQTRASVVIPVTGDSEGATVQLTPYFPTCGSDCIRHKGTVVLCPQTGVPFPLDNNKSKPGGWLPLLLLSLLVATWVLVAGIYLMWRHERIKKTSFSTTTLLPPIKVLVVYPSEICFHHTICYFTEFLQNHCRSEVILEKWQKKKIAEMGPVQWLATQKKAADKVVFLLSNDVNSVCDGTCGKSEGSPSENSQDLFPLAFNLFCSDLRSQIHLHKYVVVYFREIDTKDDYCPKYHLMKDATAFCAELLHVKQQVSAGKRSQACHDGCCSL
notes: also called Del-6 (ΔN458-V462) IL-17RB; not shown: Flag tag
On to B1, for which the binding result in data set [1] is reported as “no binding”; in data set [2], “no binding (tested: 50 ng/ml rIL-17B)”.

B2: IL-17RB ΔV403˜S416 (Del-3), Flag-tagged (receptor)
chain: REPTVQCGSETGPSPEWMLQHDLIPGDLRDLRVEPVTTSVATGDYSILMNVSWVLRADASIRLLKATKICVTGKSNFQSYSCVRCNYTEAFQTQTRPSGGKWTFSYIGFPVELNTVYFIGAHNIPNANMNEDGPSMSVNFTSPGCLDHIMKYKKKCVKAGSLWDPNITACKKNEETVEVNFTTTPLGNRYMALIQHSTIIGFSQVFEPHQKKQTRASVVIPVTGDSEGATVQLTPYFPTCGSDCIRHKGTVVLCPQTGVPFPLDNNKSKPGGWLPLLLLSLLVATWVLVAGIYLMWRHERIKKTSFSTTTLLPPIKVLVVYPSEICFHHTICYFTEFLQNHCRSEVILEKWQKKKIAEMGPVQWLATQKKAADKVVFLLSNDVNSENSQDLFPLAFNLFCSDLRSQIHLHKYVVVYFREIDTKDDYNALSVCPKYHLMKDATAFCAELLHVKQQVSAGKRSQACHDGCCSL
notes: not shown: Flag tag
Take B2: the binding result in data set [1] is given as “no binding”.
For the molecule B3, in data set [3], the binding result was “binds”.
With B4, the binding result in data set [4] is listed as “binds”.

B5: interleukin-17 receptor B (IL-17RB), human, endogenous in pancreatic cancer cells (receptor)
chain: REPTVQCGSETGPSPEWMLQHDLIPGDLRDLRVEPVTTSVATGDYSILMNVSWVLRADASIRLLKATKICVTGKSNFQSYSCVRCNYTEAFQTQTRPSGGKWTFSYIGFPVELNTVYFIGAHNIPNANMNEDGPSMSVNFTSPGCLDHIMKYKKKCVKAGSLWDPNITACKKNEETVEVNFTTTPLGNRYMALIQHSTIIGFSQVFEPHQKKQTRASVVIPVTGDSEGATVQLTPYFPTCGSDCIRHKGTVVLCPQTGVPFPLDNNKSKPGGWLPLLLLSLLVATWVLVAGIYLMWRHERIKKTSFSTTTLLPPIKVLVVYPSEICFHHTICYFTEFLQNHCRSEVILEKWQKKKIAEMGPVQWLATQKKAADKVVFLLSNDVNSVCDGTCGKSEGSPSENSQDLFPLAFNLFCSDLRSQIHLHKYVVVYFREIDTKDDYNALSVCPKYHLMKDATAFCAELLHVKQQVSAGKRSQACHDGCCSL
notes: Endogenous receptor of CFPAC1 / BxPC3 cells, precipitated from lysates or stained in situ; also called interleukin-17B receptor
B5: the binding result in data set [5] is “binds”.

B6: IL-17RB Y447F, Flag-tagged (receptor)
chain: REPTVQCGSETGPSPEWMLQHDLIPGDLRDLRVEPVTTSVATGDYSILMNVSWVLRADASIRLLKATKICVTGKSNFQSYSCVRCNYTEAFQTQTRPSGGKWTFSYIGFPVELNTVYFIGAHNIPNANMNEDGPSMSVNFTSPGCLDHIMKYKKKCVKAGSLWDPNITACKKNEETVEVNFTTTPLGNRYMALIQHSTIIGFSQVFEPHQKKQTRASVVIPVTGDSEGATVQLTPYFPTCGSDCIRHKGTVVLCPQTGVPFPLDNNKSKPGGWLPLLLLSLLVATWVLVAGIYLMWRHERIKKTSFSTTTLLPPIKVLVVYPSEICFHHTICYFTEFLQNHCRSEVILEKWQKKKIAEMGPVQWLATQKKAADKVVFLLSNDVNSVCDGTCGKSEGSPSENSQDLFPLAFNLFCSDLRSQIHLHKYVVVFFREIDTKDDYNALSVCPKYHLMKDATAFCAELLHVKQQVSAGKRSQACHDGCCSL
notes: also called Y447F mutant of IL-17RB; not shown: Flag tag
In the case of B6, the figures for the binding result in data set [6] and in data set [7] were “binds” and “no binding”, respectively.

B7: IL-17RB ΔK470˜Q484 (Del-7), Flag-tagged (receptor)
chain: REPTVQCGSETGPSPEWMLQHDLIPGDLRDLRVEPVTTSVATGDYSILMNVSWVLRADASIRLLKATKICVTGKSNFQSYSCVRCNYTEAFQTQTRPSGGKWTFSYIGFPVELNTVYFIGAHNIPNANMNEDGPSMSVNFTSPGCLDHIMKYKKKCVKAGSLWDPNITACKKNEETVEVNFTTTPLGNRYMALIQHSTIIGFSQVFEPHQKKQTRASVVIPVTGDSEGATVQLTPYFPTCGSDCIRHKGTVVLCPQTGVPFPLDNNKSKPGGWLPLLLLSLLVATWVLVAGIYLMWRHERIKKTSFSTTTLLPPIKVLVVYPSEICFHHTICYFTEFLQNHCRSEVILEKWQKKKIAEMGPVQWLATQKKAADKVVFLLSNDVNSVCDGTCGKSEGSPSENSQDLFPLAFNLFCSDLRSQIHLHKYVVVYFREIDTKDDYNALSVCPKYHLMQVSAGKRSQACHDGCCSL
notes: not shown: Flag tag
As for B7, the binding result in data set [1] is on record as “no binding”.
